Results reported in patent US7507412B2, “Glycoprotein VI fusion proteins” (Merck Patent GmbH, priority 2001, dated 2009).

T1: collagen type III (Homo sapiens, UniProt P02461)
T1 sequence (P02461 154-1221 limits assumed): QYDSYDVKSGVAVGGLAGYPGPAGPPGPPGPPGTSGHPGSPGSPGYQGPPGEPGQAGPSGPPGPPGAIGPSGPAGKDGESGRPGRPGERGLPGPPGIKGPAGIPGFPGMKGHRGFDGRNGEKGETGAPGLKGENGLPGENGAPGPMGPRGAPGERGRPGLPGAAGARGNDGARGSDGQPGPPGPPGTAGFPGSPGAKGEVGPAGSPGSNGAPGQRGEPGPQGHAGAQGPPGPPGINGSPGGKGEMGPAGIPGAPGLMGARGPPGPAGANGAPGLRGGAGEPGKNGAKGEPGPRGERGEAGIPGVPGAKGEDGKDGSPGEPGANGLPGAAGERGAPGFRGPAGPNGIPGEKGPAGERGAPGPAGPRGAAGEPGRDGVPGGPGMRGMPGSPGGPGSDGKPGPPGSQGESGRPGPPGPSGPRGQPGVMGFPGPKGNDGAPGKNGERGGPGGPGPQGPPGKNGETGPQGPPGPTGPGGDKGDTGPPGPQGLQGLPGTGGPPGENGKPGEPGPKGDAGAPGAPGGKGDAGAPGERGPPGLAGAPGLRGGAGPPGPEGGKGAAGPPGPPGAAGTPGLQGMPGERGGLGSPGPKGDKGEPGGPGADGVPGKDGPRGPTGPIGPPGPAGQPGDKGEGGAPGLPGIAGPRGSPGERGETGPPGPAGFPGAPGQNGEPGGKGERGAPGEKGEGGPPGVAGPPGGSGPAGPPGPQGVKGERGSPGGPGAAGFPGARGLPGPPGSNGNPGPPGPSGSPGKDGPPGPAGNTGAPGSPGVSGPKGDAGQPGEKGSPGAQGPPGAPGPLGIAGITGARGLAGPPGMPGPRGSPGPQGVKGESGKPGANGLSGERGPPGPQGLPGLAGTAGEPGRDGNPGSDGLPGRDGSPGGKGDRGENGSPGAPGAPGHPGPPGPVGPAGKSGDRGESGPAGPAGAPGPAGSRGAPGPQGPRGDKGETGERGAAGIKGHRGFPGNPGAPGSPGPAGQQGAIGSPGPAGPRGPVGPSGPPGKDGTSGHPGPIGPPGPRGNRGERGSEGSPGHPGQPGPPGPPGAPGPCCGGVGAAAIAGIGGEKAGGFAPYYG

T2: human collagen type III (Sigma) (human, UniProt P02461 154-1221, limits assumed)
T2 construct: Purified natural collagen immobilised on the chip (331 RU); also called Collagen type III (human)
T2 sequence (looked up): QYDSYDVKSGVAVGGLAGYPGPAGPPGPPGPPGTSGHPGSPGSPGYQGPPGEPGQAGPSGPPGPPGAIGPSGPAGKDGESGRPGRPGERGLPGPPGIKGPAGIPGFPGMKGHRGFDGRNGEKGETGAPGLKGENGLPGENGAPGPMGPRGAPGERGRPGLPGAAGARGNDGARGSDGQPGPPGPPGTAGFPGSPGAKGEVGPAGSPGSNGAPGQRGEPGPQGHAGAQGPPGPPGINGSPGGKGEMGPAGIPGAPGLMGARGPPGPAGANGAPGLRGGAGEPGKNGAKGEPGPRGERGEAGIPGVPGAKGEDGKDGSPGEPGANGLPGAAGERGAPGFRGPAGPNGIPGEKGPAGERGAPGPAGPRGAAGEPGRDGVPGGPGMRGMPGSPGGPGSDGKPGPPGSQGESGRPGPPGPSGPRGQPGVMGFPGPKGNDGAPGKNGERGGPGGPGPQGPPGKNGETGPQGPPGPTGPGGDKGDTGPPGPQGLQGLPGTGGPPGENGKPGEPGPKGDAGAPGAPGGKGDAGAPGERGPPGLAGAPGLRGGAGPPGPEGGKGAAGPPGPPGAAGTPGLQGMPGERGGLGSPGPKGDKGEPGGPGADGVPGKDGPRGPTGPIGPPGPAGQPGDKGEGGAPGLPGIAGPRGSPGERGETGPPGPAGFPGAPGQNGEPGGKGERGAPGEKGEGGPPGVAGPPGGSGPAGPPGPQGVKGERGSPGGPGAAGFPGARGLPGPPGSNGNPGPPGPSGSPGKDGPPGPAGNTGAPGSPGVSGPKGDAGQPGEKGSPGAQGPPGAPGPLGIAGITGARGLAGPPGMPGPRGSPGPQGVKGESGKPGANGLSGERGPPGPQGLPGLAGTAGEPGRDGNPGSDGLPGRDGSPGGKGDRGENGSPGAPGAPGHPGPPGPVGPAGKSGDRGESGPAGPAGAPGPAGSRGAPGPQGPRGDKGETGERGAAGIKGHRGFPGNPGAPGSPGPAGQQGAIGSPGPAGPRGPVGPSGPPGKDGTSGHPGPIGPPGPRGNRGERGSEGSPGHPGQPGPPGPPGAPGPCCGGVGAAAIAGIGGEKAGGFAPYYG


Experiments:
collagen type III [1] = molecular target: T1, collagen type III; test: ELISA: GPVI-Fc binding at collagen-coated microtiter plates; details: HEPES binding buffer pH 7.4, FIG. 4
From the text: GPVI-Fc, solved in HEPES buffer (pH 7.4) containing 1% BSA and 0.05% Tween 20, was allowed to bind at collagen-coated microtiter plates. The amount of collagen-bound GPVI-Fc was calorimetrically detected by an anti-Fc antibody conjugated with horse radish peroxidase. Non-specific binding was estimated by a collagen non-specific Fc fusion protein applied instead of GPVI-Fc. Data shown as mean (n=2).
In principle, collagen coated microtiter plates are used as a matrix and GPVI-Fc as the ligand. The detection of bound GPVI-Fc is carried out by an anti-Fc antibody conjugated with horse radish peroxidase which binds specifically at the Fc moiety. After addition of peroxidase substrate, the amount of bound GPVI-Fc is reflected by an increase in absorption.
The polystyrol microtiterplates are coated with 50 μl of 20 μg/ml collagen type III suspended in TRIS buffered saline pH 8.0 for 12 h. Non-bound collagen is removed by washing. Afterwards, free protein binding sites are blocked by 5% (w/v) milk powder and 0.05% (v/v) Tween® 20 both solved in HEPES buffer (pH 7.4).
GPVI-Fc, in a concentration range of 0.1-100 nM, is solved in binding buffer (HEPES, 1% (w/v) bovine serum albumin, 0.05% (v/v) Tween® 20, pH 7.4). […]
Fifty μl of GPVI-Fc solution are given into each well. […] Finally, the amount of bound GPVI-Fc is calorimetrically detected by the peroxidase reaction.

human platelets = test: Collagen-induced platelet aggregation, determined turbidometrically; format: cell-based; details: GPVI-Fc added prior to collagen, 10 μg/ml collagen, FIG. 6
Experimental: Platelet aggregation is turbidometrically determined after the addition of 10 μg/ml collagen (control) and in the presence of different GPVI-Fc concentrations. Data are shown as means (n=4).
The therapeutic relevance for GPVI-antagonists to prevent collagen-induced thromboembolic complications is shown by a GPVI-Fc titration curve (FIG. 6). Briefly, stimulation of human platelets with collagen induces an aggregation within minutes. […] Therefore, collagen trapped by GPVI-Fc is no longer able to induce an aggregation of platelets. Considering the therapeutic relevance of GPVI receptor antagonism the following conclusion can be drawn from the results presented above: • (i) GPVI-Fc itself can be used as a drug to prevent collagen-induced thromboembolic complications. • (ii) Antagonism of the platelet GPVI receptor by low molecular drugs should prevent the collagen-induced aggregation.

[2] = molecular target: T2, human collagen type III (Sigma); test: SPR, BIAcore 3000, collagen type III immobilised, GPVI in solution, 25 C
Experimental: (§1) Protein interactions were identified and characterized by SPR technology using the BIAcore® 3000 instrument (BIAcore®, Freiburg, Germany) and methodology (Johnsson and Lindqvist, 1992; Johnsson et al., 1991). Coupling reagents were used according to protocols developed by the supplier. Coupling to the CM 5 sensor chip was done via activated carboxylate groups to free amine groups of human collagen type III (Sigma®). The pH-scouting and the coupling chemistry was performed under standard conditions (Johnsson and Lindqvist, 1992; Johnsson et al., 1991). For coupling the collagen was diluted to 0.125 µg/ml into 10 mM acetate buffer pH 4.5, resulting in 331 RU immobilized material.
(§2) For the binding experiments purified recombinant glycoprotein VI was used. The protein was diluted into 20 mM Hepes, pH 7.4, 150 mM NaCl, 5 mM EDTA, 0.005% Tween® 20. All binding experiments were performed at 25° C. and performed in duplicates.

collagen type III [3] = molecular target: T1, collagen type III; test: Binding of GPVI to collagen type III measured by surface plasmon resonance (BIAcore 3000); design: purchased Sigma
From the text: The known interaction of GPVI to Collagen was used to develop a binding test with the BIAcore 3000. The binding of proteins to immobilized ligands can be monitored using the phenomenon of surface plasmon resonance (SPR). This technique can give results regarding the affinity and kinetics of interacting molecules in solution.
In this assay human collagen type III was immobilized on the sensor surface as stated in the methods and purified soluble GPVI was passed over the collagen surface.
as §1, with “μg/ml” for “µg/ml”
as §2
The titration with glycoprotein VI was performed at concentrations ranging from 0.2 μg/ml to 50 μg/ml.
Total protein concentrations were determined by the BCA method (Pierce) The kinetic of the interaction of GPVI with collagen can be observed in the sensorgram seen in FIG. 7. In the experiment increasing concentrations of purified GPVI were passed over the collagen type III surface.

[4] = molecular target: T2, human collagen type III (Sigma); test: SPR equilibrium analysis, assuming 75000 Da and fully active protein
Experimental: as §1, §2

concentration at which collagen-binding sites are completely occupied (saturation curve) (collagen type III [1])	koff [2] [s⁻¹]	dissociation rate constant from the collagen surface (collagen type III [3]; 25° C.) [s⁻¹]	time until binding reaches saturation (collagen type III [3]; 25° C., GPVI 0.2-50 μg/ml)	half maximal concentration of saturation for the GPVI/collagen interaction (collagen type III [3]; equilibrium binding signal, non linear fit, 1:1 binding model, FIG. 8) [µg/mL]	Kd [4] [nM]	Molecule	suppression of collagen-induced platelet aggregation (human platelets)
above 100 nM	–	–	–	–	–	GPVI-Fc: Fusion of extracellular part of GPVI (aa 21 to 269), Cys-Gly-Arg linker and Fc of IgG1, encoded in KL74A	concentration-dependent reduction of platelet-aggregation
–	0.003	0.003	about 200 seconds	9	~120	purified recombinant glycoprotein VI (receptor, UniProt Q9HCN6 21-269, looked up, also called GPVI; purified soluble GPVI) QSGPLPKPSLQALPSSLVPLEKPVTLRCQGPPGVDLYRLEKLSSSRYQDQAVLFIPAMKRSLAGRYRCSYQNGSLWSLPSDQLELVATGVFAKPSLSAQPGPAVSSGGDVTLQCQTRYGFDQFALYKEGDPAPYKNPERWYRASFPIITVTAAHSGTYRCYSFSSRDPYLWSAPSDPLELVVTGTSVTPSRLPTEPPSPVAEFSEATAELTVSFTNEVFTTETSRSITASPKESDSPAGPARQYYTKGN	–
